Assay results from patent publication US20240270866A1 (Alector, published 2024).

Columns and labels:
[1] = molecular target: T1, mouse SIRPA overexpressed on CHO cells (mouse, UniProt P97797 32-513); assay: flow, CHO-muSIRPA;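 as to relative MFI: antibody binding measured by flow cytometry: cells stained with 1 ug/ml test antibody for 1 h on ice, detected with PE-labelled secondary antibody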
T1 construct: also called CHO-muSIRPA
T1 sequence: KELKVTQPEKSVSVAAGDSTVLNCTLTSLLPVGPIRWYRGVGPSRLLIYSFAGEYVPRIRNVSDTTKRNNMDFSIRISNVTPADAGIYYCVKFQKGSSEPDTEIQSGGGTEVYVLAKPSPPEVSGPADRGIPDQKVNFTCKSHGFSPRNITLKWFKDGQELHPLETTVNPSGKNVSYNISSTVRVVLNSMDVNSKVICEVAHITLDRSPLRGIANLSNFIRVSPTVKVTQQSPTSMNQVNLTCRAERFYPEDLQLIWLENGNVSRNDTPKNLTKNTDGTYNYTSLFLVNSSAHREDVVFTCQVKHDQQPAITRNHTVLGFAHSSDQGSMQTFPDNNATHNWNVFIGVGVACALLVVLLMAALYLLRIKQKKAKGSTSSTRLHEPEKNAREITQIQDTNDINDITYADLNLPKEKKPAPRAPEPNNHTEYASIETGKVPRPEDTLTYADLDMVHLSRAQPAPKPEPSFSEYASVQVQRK

Human SIRPb D1 Fc = Human SIRPb D1 Fc (human, UniProt O00241 30-148, limits assumed); assay: ForteBio IgG avid;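 also: antibody IgG captured on AHQ biosensors, then 100 nM Fc-fused SIRP antigen applied for 3 min, followed by 3 min buffer dissociation, kinetics fitted to a 1:1 model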
Sequence of Human SIRPb D1 Fc (O00241 30-148 limits assumed): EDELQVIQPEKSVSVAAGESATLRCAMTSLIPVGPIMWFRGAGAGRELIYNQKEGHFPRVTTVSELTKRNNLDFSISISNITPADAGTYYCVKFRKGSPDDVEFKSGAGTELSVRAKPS
Method: (§1) Briefly, ForteBio affinity measurements were performed by loading IgGs on-line onto AHQ sensors. Sensors were equilibrated off-line in assay buffer for 30 min and then monitored on-line for 60 seconds for baseline establishment. For avid binding measurement, sensors with loaded IgGs were exposed to 100 nM antigen (human SIRPA or SIRPβ1 Fc fusion) for 3 min, afterwards they were transferred to assay buffer for 3 min for off-rate measurement. Additional avid binding was determined by loading biotinylated SIRPA monomer on SA sensors and exposure to 100 nM IgG in solution. Monovalent binding measurements were obtained by loading human SIRPA or SIRPβ1 Fc fusion antigens to AHQ sensor and followed by exposure to 100 nM anti-SIRPA antibody Fab. Additional monovalent measurements were made by loading biotinylated human SIRPA or SIRPβ1 monomer to SA sensor followed by exposure to 100 nM Fab in solution. Kinetics data were fit using a 1:1 binding model in the data analysis software provided by ForteBio.

Human SIRPA D1 Fc = molecular target: T2, Human SIRPA D1 Fc (human, UniProt P78324 32-137); assay: ForteBio IgG avid;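 also: antibody IgG captured on AHQ biosensors, then 100 nM Fc-fused SIRP antigen applied for 3 min, followed by 3 min buffer dissociation, kinetics fitted to a 1:1 model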
T2 construct: not shown: human IgG1 Fc

Mouse SIRPA D1 Fc = molecular target: T3, Mouse SIRPA D1 Fc (mouse, UniProt P97797 32-150, limits assumed); assay: ForteBio IgG avid;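 also: antibody IgG captured on AHQ biosensors, then 100 nM Fc-fused SIRP antigen applied for 3 min, followed by 3 min buffer dissociation, kinetics fitted to a 1:1 model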
T3 sequence: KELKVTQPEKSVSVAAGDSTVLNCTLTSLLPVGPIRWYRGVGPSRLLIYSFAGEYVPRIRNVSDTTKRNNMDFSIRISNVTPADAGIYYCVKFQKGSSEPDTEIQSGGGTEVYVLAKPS
Method: as §1

[2] = molecular target: T4, human SIRPA overexpressed on CHO cells (human, UniProt P78324 31-504); assay: flow, CHO-huSIRPA;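 also: Anti-SIRPA antibodies applied at 1 µg/mL for 1 h on ice, binding read by flow cytometry using a PE-labelled secondary antibody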
T4 construct: also called CHO-huSIRPA

[3] = molecular target: T1, mouse SIRPA overexpressed on CHO cells; assay: flow, CHO-muSIRPA; remark: listed apart in the source;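 as to relative MFI: antibody binding measured by flow cytometry: cells stained with 1 ug/ml test antibody for 1 h on ice, detected with PE-labelled secondary antibody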
[4] = molecular target: T5, human SIRPA Fc fusion antigen (human, UniProt P78324 31-373); assay: ForteBio Fab monovalent
T5 construct: heterologous signal peptide; not shown: human IgG1 Fc

[5] = molecular target: T6, human SIRPβ1 Fc fusion antigen (human, UniProt O00241 30-371); assay: ForteBio Fab monovalent
T6 construct: not shown: human IgG1 Fc
T6 sequence (O00241 30-371 limits assumed): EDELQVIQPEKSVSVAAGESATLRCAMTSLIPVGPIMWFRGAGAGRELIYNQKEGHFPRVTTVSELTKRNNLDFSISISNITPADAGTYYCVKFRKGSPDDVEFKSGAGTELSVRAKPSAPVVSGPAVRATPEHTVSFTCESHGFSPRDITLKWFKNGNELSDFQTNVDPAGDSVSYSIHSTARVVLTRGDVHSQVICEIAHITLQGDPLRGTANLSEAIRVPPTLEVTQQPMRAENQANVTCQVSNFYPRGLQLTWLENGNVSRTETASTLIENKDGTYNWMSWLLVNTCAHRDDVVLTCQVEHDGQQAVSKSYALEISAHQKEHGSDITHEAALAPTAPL

[6] = molecular target: T7, biotinylated human SIRPA (monomer) (human, UniProt P78324 31-373, limits assumed, biotinylated); assay: MSD-SET, Fab, equilibrium;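 also: solution equilibrium titration, free antigen captured on antibody-coated MSD plates and detected by electrochemiluminescence with labeled streptavidin, percent free antigen versus titrated antibody fit to quadratic model for KD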
T7 construct: monomer made by IdeS cleavage of a SIRPA Fc fusion; also called recombinant human SIRPA
Method: Antibodies (20 nM in PBS) were coated onto standard bind MSD-ECL plates overnight at 4° C. or at room temperature for 30 min. Plates were then blocked with 1% BSA for 30 min with shaking at 700 rpm, followed by three washes with wash buffer (PBSF+0.05% Tween 20). SET samples were applied and incubated on the plates for 150s with shaking at 700 rpm followed by one wash. Antigen captured on a plate was detected with 250 ng/ml sulfotag-labeled streptavidin in PBSF by incubation on the plate for 3 min. The plates were washed three times with wash buffer and then read on the MSD Sector Imager 2400 instrument using 1× Read Buffer T with surfactant. The percent free antigen was plotted as a function of titrated antibody in Prism and fit to a quadratic equation to extract the KD. To improve throughput, liquid handling robots were used throughout MSD-SET experiments, including SET sample preparation.

Binder | Kd [4] [nM] | Kd [6] [nM] | other results
SA-3 (antibody, V domains shown, IgG) VH: not shown VL: EIVLTQSPATLSLSPGERATLSCRASQSVSSYLAWYQQKPGQAPRLLIYDASNRATGIPARFSGSGSGTDFTLTISSLEPEDFAVYYCQQHDFWPPTFGGGTKVEIK |  |  | relative MFI [1]: 0.518 fold over background; binding result (Human SIRPb D1 Fc): no binding (tested: 100 nM); Kd (Human SIRPA D1 Fc): 21.4 nM; binding result (Mouse SIRPA D1 Fc): no binding (tested: 100 nM); relative MFI [2]: 0.595 fold over background; binding result [3]: no binding (tested: 1 ug/ml)
SA-4 (antibody, V domains shown, IgG) VH: not shown VL: EIVLTQSPATLSLSPGERATLSCRASQSVSSYLAWYQQKPGQAPRLLIYDASNRATGIPARFSGSGSGTDFTLTISSLEPEDFAVYYCQQDSNFPFTFGGGTKVEIK |  |  | relative MFI [1]: 0.491 fold over background; binding result (Human SIRPb D1 Fc): no binding (tested: 100 nM); Kd (Human SIRPA D1 Fc): 30.2 nM; binding result (Mouse SIRPA D1 Fc): no binding (tested: 100 nM); relative MFI [2]: 0.87 fold over background; binding result [3]: no binding (tested: 1 ug/ml)
SA-5-57 Fab (Fab, V domains shown, papain Fab) VH: EVQLLESGGGLVQPGGSLRLSCAASGFTFDSYAMSWVRQAPGKGLEWVSATSGGGGSTYHADPVKGRFTISRDNSKNTLYLQMNSLRAEDTAVYYCAKDITDDFWSVTPPYFDLWGRGTLVTVSS VL: DIQLTQSPSSVSASVGDRVTITCRASQDISSWLAWYQQKPGKAPKLLIYAASSLQSGVPSRFSGSGSGTDFTLTISSLQPEDFATYYCQQGYIFPRTFGGGTKVEIK | 23.3 |  | binding result [5]: no binding (tested: 100 nM)
SA-5-58 Fab (Fab, V domains shown, papain Fab) VH: EVQLLESGGGLVQPGGSLRLSCAASGFTFDSYAMSWVRQAPGKGLEWVSAISGSGGSTYHADSVKGRFTISRDNSKNTLYLQMNSLRAEDTAVYYCAKDTGISLWSVTPPYFDLWGRGTLVTVSS VL: DIQLTQSPSSVSASVGDRVTITCRASQDISSWLAWYQQKPGKAPKLLIYAASSLQSGVPSRFSGSGSGTDFTLTISSLQPEDFATYYCQQGYIFPRTFGGGTKVEIK |  |  | binding result [5]: no binding (tested: 100 nM)
SA-56-86 Fab (Fab, V domains shown, papain Fab) VH: QVQLVESGGGVVQPGGSLRLSCAASGFTFSYYGMSWVRQAPGKGLEWVASIWVDGSSKYYADSVKGRFTISRDNSKNTLYLQMNSLRAEDTAVYYCARGVETYSGPNWFDPWGQGTLVTVSS VL: DIQMTQSPSSVSASVGDRVTITCRASQGISSWLAWYQQKPGKAPKLLIYAASSLQSGVPSRFSGSGSGTDFTLTISSLQPEDFATYYCQQAIYFPITFGGGTKVEIK | 1.02 | 0.18 | 
SA-56-87 Fab (Fab, V domains shown, papain Fab) VH: EVQLVESGGGVVQPGRSLRLSCAASGFTFSYYGMSWVRQAPGKGLEWVASIWVDGSNKYYADSVKGRFTISRDNSKNTLYLQMNSLRAEDTAVYYCAFGLETYSGPNWFDPWGQGTLVTVSS VL: DIQMTQSPSSVSASVGDRVTITCRASQGISSWLAWYQQKPGKAPKLLIYAASSLQSGVPSRFSGSGSGTDFTLTISSLQPEDFATYYCQQAIYFPITFGGGTKVEIK | 1.1 | 0.17 | binding result [5]: no binding (tested: 100 nM)
SA-56-85 Fab (Fab, V domains shown, papain Fab) VH: EVQLLESGGGVVQPGRSLGLSCAASGSTFSYYGMSWVRQAPGKGLEWVASIWVDGSNKYYADSVKGRFTISRDNSKSTLYLQMNSLRAEDTAVYYCARGVETYSGPNWFDPWGQGTLVTVSS VL: DIQMTQSPSSVSASVGDRVTITCRASQGISSWLAWYQQKPGKAPKLLIYAASSLQSGVPSRFSGSGSGTDFTLTISSLQPEDFATYYCQQAIYFPITFGGGTKVENQ | 0.772 | 0.12 | binding result [5]: no binding (tested: 100 nM)
SA-5-59 Fab (Fab, V domains shown, papain Fab) VH: EVQLLESGGGLVQPGGSLRLSCAASGFTFDNYAMSWVRQAPGEGLEWVSAVSGSGGSTYYADSVRGRFTISRDNSKNTLYLQMDSLRAEDTAVYYCAKDTGIDFWARTPPYFDLWGRGTLVTVSS VL: DIQLTQSPSSVSASVGDRVTITCRASQDISSWLAWYQQKPGKAPKLLIYAASSLQSGVPSRFSGSGSGTDFTLTISSLQPEDFATYYCQQGYIFPRTFGGGTKVEIK |  |  | binding result [5]: no binding (tested: 100 nM)
SA-19-73 Fab (Fab, V domains shown, papain Fab) VH: QVQLVESGGGLVQPGGSLRLSCAASGFTFSSYAMHWVRQAPGKGLEWVAGILYDGSNKYYADSVKGRFTISRDNSKNTLYLQMNSLRAEDTAVYYCANSDTKYTLGFAFDIWGQGTMVTVSS VL: not shown | 1.62 | 0.18 | 
SA-19-75 Fab (Fab, V domains shown, papain Fab) VH: QVQLVESGGGVVQPGRSLRLSCAASGFTFSSYGMHWVRQAPGKGLEWVAVIAYDGSNKLYADSVKGRFTISRDNSKNTLYLQMNSLRAEDTAVYYCALMRTKYTLGFAFDIWGQGTMVTVSS VL: not shown | 1.67 | 0.42 | 
SA-19-83 Fab (Fab, V domains shown, papain Fab) VH: QVQLVESGGGVVQPGRSLRLSCAASGFTFDSYLMHWVRQAPGKGLEWVASIIYDGSNKYYADSVKGRFTISRDNSKNTLYLQMNSLRAEDTAVYYCASVRTKYTLGFAFDIWGQGTMVTVSS VL: not shown | 1.44 | 0.31 | 
SA-19-81 Fab (Fab, V domains shown, papain Fab) VH: QVQLVESGGGVVQPGRSLRLSCAASGFTSSSYGMHWVRQAPGKGLEWVAVIAYDGSNKLYADSVKGRFTISRDNSKNTLYLQMNSLRAEDTAVYYCARTPTKYTLGFAFDIWGQGTMVTVSS VL: not shown | 1.53 | 0.37 | 
SA-19-82 Fab (Fab, V domains shown, papain Fab) VH: QVQLVESGGGVVQPGRSLRLSCAASGFTFSSYAMHWVRQAPGKGLEWVAGILYDGSNKYYADSVKGRFTISRDNSKNTLYLQMNSLRAEDTAVYYCARHVLKYTLGFAFDIWGQGTMVTVSS VL: not shown | 1.44 | 0.27 | 
SA-19-80 Fab (Fab, V domains shown, papain Fab) VH: EVQLLESGGGVVQPGRSLRLSCAASGFTFSSYGMHWVRQAPGKGLEWVAGILYDGSNKYYADSVKGRFTISRDNSKNTLYLQMDGLRAEDTAVYYCARHSVKYTLGFAFDIWGQGTMVTVSS VL: not shown | 2.26 | 0.22 | 
SA-19-79 Fab (Fab, V domains shown, papain Fab) VH: QVQLVESGGGVVQPGRSLRLSCAASGFTFSSYGMHWVRQAPGKGLEWVAVIAYDGSNKIYADSVKGRFTISRDNSKNTLYLQMNSLRAEDTAVYYCATTDTKYTLGFAFDIWGQGTMVTVSS VL: not shown | 0.689 | 0.14 | 
SA-19-78 Fab (Fab, V domains shown, papain Fab) VH: QVQLVESGGGVVQPGRSLRLSCAASGFTFSSYGMHWVRQAPGKGLEWVAVIAYDGSNKLYADSVKGRFTISRDNSKNTLYLQMDSLRAEDTAVYYCATSDTKYTLGFAFDIWGQGTMVTVSS VL: not shown | 1.53 | 0.084 | 
SA-19-76 Fab (Fab, V domains shown, papain Fab) VH: QVQLVESGGGVVQPGRSLRLSCAASGFTFSSYGMHWVRQAPGKGLEWVAVIAYDGSNKLYADSVKGRFTISRDNAKNSLYLQMNSPRAEDTAVYYCATMRTKYTLGFAFDIWGQGTMVTVSS VL: not shown | 1.64 | 0.42 | 
SA-19-74 Fab (Fab, V domains shown, papain Fab) VH: QVQLVESGGGVVQPGRSLRLSCAASGFAFSSYAMHWVRQAPGKGLEWVAGILYDGSNKYYADSVKGRFTISRDNSKNTLYLQMNSLRAEDTAVYYCARHSQKYTLGFAFDIWGQGTMVTVSS VL: not shown | 3.16 | 1.1 | 
SA-19-72 Fab (Fab, V domains shown, papain Fab) VH: QVQLVESGGGVVQPGRSLGLSCAASGFTFSSYAMHWVRQAPGKGLEWVAGILYDGSNKYYADSVKGRFTISRDNSKNTLYLQMNSLRAEDTAVYYCARSNEKYTLGFAFDIWGQGTMVTVSS VL: not shown | 4.95 | 0.88 | 
SA-19-84 Fab (Fab, V domains shown, papain Fab) VH: QVQLVESGGGVVQPGRSLRLSCAASGFTFSSYGMHWVRQAPGKGLEWVAVIAYDGSNKLYADSVKGRFTISRDNSKNTLYLQMNSLRAEDTAVYYCARTQLKYTLGFAFDIWGQGTMVTVSS VL: not shown | 2.02 | 0.64 | 
SA-19-77 Fab (Fab, V domains shown, papain Fab) VH: QVQLVESGGGVVQPGRSLRLSCAASGFTFSSYGMAWVRQAPGKGLEWVAQILYDGSNEYYADSVKGRFTISRDNSKNTLYLQMNSLRAEDTAVYYCARDLTKYTLGFAFDIWGQGTMVTVSS VL: not shown | 3.61 | 1.2 | 
